Experimental data from patent US20040087497.

Columns and labels:
[1] = test system: T1, Suc-βAla-Leu-Ala-Leu-Dox
T1 sequence: XLAX

[2] = test system: T2, Suc-Leu-Ala-Gly-Dox
T2 sequence: XAX

[3] = test system: T3, Suc-Ile-Ala-Leu-Dox
T3 sequence: XAX

[4] = test system: T4, Suc-Leu-Ala-Leu-Dox
T4 sequence: XAX

[5] = test system: T5, Suc-Met-Ala-Leu-Dox
T5 sequence: XAX

[6] = test system: T6, Suc-Leu-Tyr-Leu-Dox
T6 sequence: XYX

[7] = test system: T7, Suc-βAla-Leu-Ala-Leu-pNA
T7 sequence: XLAX

[8] = test system: T8, Suc-βAla-Leu-Tyr-Leu-Dox
T8 sequence: XLYX

[9] = test system: T9, Suc-βAla-Ile-Ala-Leu-Dox
T9 sequence: XIAX

[10] = scale: fraction relative to Suc-βAla-Leu-Ala-Leu-Dox

purified Porcine Kidney CD10 (Elastin Products Company)
% hydrolysis/10 hr (% hydrolysis/10 hr) [1]: 10.9 | Cleaved by CD10 [1]: + | Fraction hydrolyzed relative to standard [1, 10]: 1 | % hydrolysis/10 hr (% hydrolysis/10 hr) [2]: 0 | Cleaved by CD10 [2]: - | Fraction hydrolyzed relative to standard [2, 10]: 0 | % hydrolysis/10 hr (% hydrolysis/10 hr) [3]: 12.5 | Cleaved by CD10 [3]: + | Fraction hydrolyzed relative to standard [3, 10]: 1.1 | % hydrolysis/10 hr (% hydrolysis/10 hr) [4]: 8.3 | Cleaved by CD10 [4]: + | Fraction hydrolyzed relative to standard [4, 10]: 0.75 | % hydrolysis/10 hr (% hydrolysis/10 hr) [5]: 37.7 | Fraction hydrolyzed relative to standard [5, 10]: 3.5 | % hydrolysis/10 hr (% hydrolysis/10 hr) [6]: 0 | Fraction hydrolyzed relative to standard [6, 10]: 0 | rate of cleavage (release of Leu-pNA) relative to Suc-βAla-Leu-Ala-Leu-Dox (release of Leu-Dox) [7]: 590 times more rapidly cleaved | % hydrolysis/10 hr (% hydrolysis/10 hr) [8]: 0 | Fraction hydrolyzed relative to standard [8, 10]: 0 | % hydrolysis/10 hr (% hydrolysis/10 hr) [9]: 22.1 | Cleaved by CD10 [9]: + | Fraction hydrolyzed relative to standard [9, 10]: 2

thimet oligopeptidase
Cleavage by thimet oligopeptidase [1]: + | Cleavage by thimet oligopeptidase [2]: + | Cleavage by thimet oligopeptidase [3]: - | Cleavage by thimet oligopeptidase [4]: + | Cleavage by thimet oligopeptidase [9]: -
